Our source for the stoichiometry N values is PMC5572738.

This experiment deals with T1, bacteriorhodopsin (BR) from Halobacterium salinarum (Halobacterium salinarum), P02945.
T1 chain: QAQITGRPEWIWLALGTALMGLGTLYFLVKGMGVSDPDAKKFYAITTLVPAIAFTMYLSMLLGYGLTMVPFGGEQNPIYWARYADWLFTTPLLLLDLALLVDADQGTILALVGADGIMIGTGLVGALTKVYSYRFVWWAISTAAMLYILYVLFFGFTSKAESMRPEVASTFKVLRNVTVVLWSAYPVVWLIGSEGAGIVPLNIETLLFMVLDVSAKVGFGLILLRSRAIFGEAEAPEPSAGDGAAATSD
Nature of the experiment: SEC; Sephadex 200 column, BR solubilised in DDM; elution position compared with Blue Dextran, alcohol dehydrogenase (150 kDa) and bovine serum albumin (66 kDa). The following applies: remark: other sources report otherwise. For orientation: In gel filtration, larger molecules generally elute earlier.

B1: bacteriorhodopsin (BR) from Halobacterium salinarum, P02945 14-262 (natural protein)
chain: QAQITGRPEWIWLALGTALMGLGTLYFLVKGMGVSDPDAKKFYAITTLVPAIAFTMYLSMLLGYGLTMVPFGGEQNPIYWARYADWLFTTPLLLLDLALLVDADQGTILALVGADGIMIGTGLVGALTKVYSYRFVWWAISTAAMLYILYVLFFGFTSKAESMRPEVASTFKVLRNVTVVLWSAYPVVWLIGSEGAGIVPLNIETLLFMVLDVSAKVGFGLILLRSRAIFGEAEAPEPSAGDGAAATSD
modifications: here or on the partner: retinal chromophore attached in a Schiff base linkage to a lysine residue in the seventh helix; retinal chromophore attached in a Schiff base linkage to a lysine residue in the seventh helix
Turning to B1, the stoichiometry N was 3.

Broadly, the stoichiometry N is the number of molecules, sites or subunits per partner or assembly.
